Measured values from PMC7118906 (2020).

Biological target: GPI (Homo sapiens, UniProt P06744)
Experiment: MST

B1: GPD2 (protein)
chain: ADCISEPVNREPPSREAQLLTLQNTSEFDILVIGGGATGSGCALDAVTRGLKTALVERDDFSSGTSSRSTKLIHGGVRYLQKAIMKLDIEQYRMVKEALHERANLLEIAPHLSAPLPIMLPVYKWWQLPYYWVGIKLYDLVAGSNCLKSSYVLSKSRALEHFPMLQKDKLVGAIVYYDGQHNDARMNLAIALTAARYGAATANYMEVVSLLKKTDPQTGKVRVSGARCKDVLTGQEFDVRAKCVINATGPFTDSVRKMDDKDAAAICQPSAGVHIVMPGYYSPESMGLLDPATSDGRVIFFLPWQKMTIAGTTDTPTDVTHHPIPSEEDINFILNEVRNYLSCDVEVRRGDVLAAWSGIRPLVTDPKSADTQSISRNHVVDISESGLITIAGGKWTTYRSMAEDTINAAVKTHNLKAGPSRTVGLFLQGGKDWSPTLYIRLVQDYGLESEVAQHLAATYGDKAFEVAKMASVTGKRWPIVGVRLVSEFPYIEAEVKYGIKEYACTAVDMISRRTRLAFLNVQAAEEALPRIVELMGRELNWDDYKKQEQLETARKFLYYEMGYKSRSEQLTDRSEISLLPSDIDRYKKRFHKFDADQKGFITIVDVQRVLESINVQMDENTLHEILNEVDLNKNGQVELNEFLQLMSAIQKGRVSGSRLAILMKTAEENLDRRVPIPVDRSCGGL
  Kd: 8.59 nM
